In the DeepSol protein solubility set:

Experiment: soluble on expression in E. coli; label from the status in PepcDB or PDB records

| Sequence | soluble on expression in E. coli |
| --- | --- |
| MKYQVKQVAEISGVSIRTLHHYDNIELLNPSALTDAGYRLYSDADLERLQQILFFKEIGFRLDEIKEMLDHPNFDRKAALQSQKEILMKKKQRMDEMIQTIDRTLLSVD | soluble |
| MAQHVKFHQYFFQWMQLYKLDAVRPVTYRKYEMSHRQLVTLAPDLKMADLSRLTYQQLLNDYAETHERQTTMDFHRHLKGSLIDALEEGFIDRDPTRKAIIKGIKLEHHHHHH | not soluble |
| MGHHHHHHSHMRTYSDKNELKEEVLKSYKKYIAEFNDIPEKLKDLRIDEVDRTPAENLAYQVGWTTLILKWESDEQSGLEVKTPTETFKWNQLGELYQHFTETYASLTIKELTAQLNDNVDAIGNMIDSMSDEVLFKPHMRNWADSATKNAVWEVYKFIHINTVAPFGTFRTKIRKWKKVALK | soluble |
| MPTITLRLELHNPTKVKQDMYERMTEVNTAFANWLLNHPELNQATSKIFKEFSPQRFPSAVVNQTIREVKSQKKNQKTKKFRTFWCCFNNQNVKVEKKGAFYTVSFPTLEKRIGVPVVTRPYQEAWLNRLLDGTAKQGAAKLYKKRTKWYLAIAITFEVKPRHETKVMGVDLGLRYIAVASVGTKSLFFKGSQCAFIRRRYAALRRTLGKAKKLQMIRKIGRKESRWMKDQNHKISRQIVNVALANGVGVIRMEALTGIRKRAKSAKEAGRSLHSWAFHQLQTMIAYKAEMAGIRVEWVKPTYTSQTCKCGHREKGNRNGIHFQCKQCGYTLHADLNGAINIAKAISGFVAEPSALVTGAPPIGVHRNPMGRGDDTPLNLGVVRTRNG | not soluble |
| SLPSVLDTLAAHSDNPSSFLALNSGNAYFHDGGFDGACAYRTSGRYVLQFGGPFTAPEHRARLLDAFAAHAGRRLVAVQLQRADAELYAAHGFTVNQLGASYAVDLSRFTLRGSRFVRLRNKISRARRAGLEVAEVMAGDDCAELDRIDQCWLRDKGRHVKELRFLVGQRNGSLQRHRRLFVGRIDGETAGYINYSPVYGSRSGWLHDLSRRRPDAPPGVMEALNATVMERLTAEGAGWLHFGFTPFTGLDPEHELPGASRMFTRFARLLAERGDVIYPAASQLEYKQKWAPHVVLPEYIAFRGRPRPGAVWQLLRATNAL | soluble |
| MKKLTIGLIGNPNSGKTTLFNQLTGSRQRVGNWAGVTVERKEGQFSTTDHQVTLVDLPGTYSLTTISSQTSLDEQIACHYILSGDADLLINVVDASNLERNLYLTLQLLELGIPCIVALNMLDIAEKQNIRIEIDALSARLGCPVIPLVSTRGRGIEALKLAIDRYKANENVELVHYAQPLLNEADSLAKVMPSDIPLKQRRWLGLQMLEGDIYSRAYAGEASQHLDAALARLRNEMDDPALHIADARYQCIAAICDVVSNTLTAEPSRFTTAV | soluble |
| MDKTVFQQDLAPYVKYSLNKKKRWETGNDKNYLSEVQKRYRGMDMFVIDRVRLNSSPYFCFISRENFFHNYFLQFPIRQLHQLNADNSYSYVYANQTYGQSYKSLQPENRSPSKSKSAKKPELYQNAKVAYHIITPPKNYEKLQAPKFCPGSSDRNLTHRTLTHWRRVKRMRDALLSLRYEKFEVLDEEVDMVDDYLIFDQYDPPRKLLV | not soluble |
| MANPFSKAWKYLMALFDSKIEENADPKVQIQQAIEDAQRQHQELSQQAAAVIGNQRQLEMQLNRRLAEIEKLQGNTRQAIQLADKARAEGNIQKATEYENAAEAFAAQLVTAEQGVEDTKQLHDQALQQADAAKKAVERNAMVLQQKVAERTKLLSQLEQAKMQEKVAESIQSMNSISNRDTPNLDQVREKIERRYANALGTAELAQNSVQGRMAEVEQAGIQLAGHSRLEQIRAEMSGGQLGAGNSATQQSIESAQQATPSAADDAVARKMRELRGEA | not soluble |
| MEFYNSTNEIPEEMLKGIDLTYPQLTYLPETGILYDNTYNEKTVPIISGGGSGHEPAHVGYVGSGMLAAAVTGPLFIPPKSKNILKAIRQVNSGKGVFVIIKNFEADLKEFNEAIKEARTEGIDVRYIVSHDDISVNAYNFHKRHRGVAGTILLHKILGAFAKEGGSIDEIEQLALSLSPEIYTLGVALAPVHFPHQKTSFVLAEDEVSFGIGIHGEPGYRVEKFEGSERIAIELVNKLKAEINWQKKANKNYILLVNGLGSTTLMELYSFQYDVMRLLELEGLSVKFCKVGNLMTSCDMSGISLTLCSVKDPKWLDYLNVPTGAFAWLEHHHHHH | soluble |
| MGSDKIHHHHHHMLSTTNLTMQFGAKALFENVSVEFGNGNRYGLIGANGSGKTTLMKILGGDLEPSSGHVSLSSGERLGKLRQDQFAFEECTVLDTVIMGHAELWRVKQERDRLYALPEMTDEEGMAVAHVEVEFAELGGYAAESRAGELLSGVGIPLEQHSGLMSAVSPGWKLRVLLAQALFADPDILLLDEPTNNLDIHTIQWLEELISNLNSTVIIISHDRHFLNSVCTHMADLDYGELRIYPGNYDEYMQASTLVRDQLLADNDKKKEKMAELQGFVSRFSANASKAKQATSRARQLEKIQLAEVKPSSRQNPYLVFNQERKLYRNALDGKDLSKSFGDLRLFHKMRLHVEAGERIAIIGSNGLGKTTLLRCLMGELTTDAGEIKWAENARIGYFAQDYAPEFAEDMTLFDWMCQWRGERDDDQVIRGVLGRLLFGQDQVNRSVKVLSGGEKGRMLFGKLTLQKPNVLILDEPTNHLDMESIESLNSALEKYDGTLLFVSHDRAFVSSLATRIIEFTPRGIQDFKGTYEDYLRSQGMG | not soluble |
| MNGSRSTFLYLLAAAGLALTPAAQADRGNDVVARLNQLYNDTRQDCGGPSKPAFLCSGVLFRATWPSTDYMFYSISPKSQKSGGVSASYLRKDAKYRKLAYGLKSGFIFDTIFGNPKDHQDYAVLCSFPIDAATDDRAQQGCTDSRRTPNSVEKSCQDINVSTAEQWAANYRQNRGDHSRQCSFDVRDERNTAAGPAFYQSIRAMAQIADESFTTQNELRLAKWEENPPKSPSILAAFYTEDAGLEGARLNQIQWYQSVQAFLPIINMRLPQTRQQDAQFAYDGRKQAIYPTSEKNACERYVESATWVERDDPGFRKKIMTLEVVPTDCGRKIQDNQTNNFFNELVVDHYLDSEWKDNPDNRDSNIGSMRRQLVCHFNVARNKPEWNLEPSRPYTSNEDSIAKGCNNT | not soluble |
| MKIEKINENKIKVTISIDDLLERNIDLDTLNYNTPAAQELFWDMMEQAEIQFGFDASDSQICVEAIPDPEEGFVIIITKLDEDGEFESIHKYIKNRFRKSDLRVRKRNSRVSSSIVIYFFNNFEDLCSVCQKLRDIYSGESTLYRLKGVYYLVLTKNSWSVANLRSFEPILSEFGTKVSNVSFYEGYLNEHGEKIIEYNAVETINDYFHR | soluble |
| MSKTTQSRETTLAGHPVEYEVRRSEDATEPRIDIDIRGVTVVLPAESEESPEALLSENLNWVLETKRTYERHRERAPERRFEPGAAFPYLGDDHEIVVEPRPAHGVGDGEIRLRQSTVDQSSLKRVLENFYRSRAREHLTDRTDALADSMNHTYDRIELRNQRTRWGSCSTNGVLSFNWRLVMAPPDVIDYVVVHELAHLRESGHNDRFWRLVEMEIPEYRELSDWLDTNSVDLIFSKDDLLEHHHHHH | soluble |
| MNVIVEISDRLGMDYYFVSVTTTAKSLQLNSPKKYYKIWHQEIPYHQITEWHLTQQEDIQEISFAWQETFYRFVDYGTGIVPYLTQFCKVMR | not soluble |
| MRNNQPVTQKEVTYPPHFNLLSTTTLSSHIKYASKEFCDVAGYTLDELVNQPHNMVRHPDMPPEAFKDMWEHLKAGKSWMGMVKNRCKNGDHYWVDAFASPIKENGK | not soluble |
| NYNIYDHPKAAEDRKNTVLYLMHYHKRITDKQWEDAKKIDLKANLVNRTPEERQNIDTNQDSEYNSYVNFVKSELMNNKAFKDENLGNVLQSG | not soluble |
| ASMTTPCITILSGHFPKETIYARKTKELVEEYCSIHGYNFYYEESEPLETEEHALHFRRSWIIQQAAEKFPSTEWFLWLDSDVYVNPKNKNKPITSFIDLSDPNILYHTFHEAPWGSYPINTGVKFVHKDALEIEKIVWSLRNEAPWNTFPYEQKTVYEYVFPRIPGRYIVHDPYTLNCIVKAYPEHVKDALFVHMCGTSRAERDEHMEMVAT | soluble |
| MSLQICQGNGEFVHLLENSKGSPESFASAYSQSMRLTNGEFLCYHISTDYKSISFYNFKNASDGRTIIIHLPAKLMHEHHTLVVEEQEGVIVVDVILESSAFLTMRLPLEYIFGIENVLDDNWLSMQSPYDFTVRRPHLLHKVSQDFFVVFLEDGGLLGLRQHNENYLEPLLFNDYSYIQTLTSMFSRKKKQPADRAVACLVIHDKYLVVLTRLCHLKIWDLGSFHLVQEYNLTENFNGTLETIEYESNGNYISTLNDVIVIYLPIGNGVFKFGRLSFTNDGERKPTFNMFSSIDANMKKSTIWSFVDMKLTDPLELNFTSTTFNLIILWKSGSNSKLQILNIKDSSFSDFEWIEASNKSLQNFQTEEISALIQNYDFDKALYKLKSHYSDMTFKEADSLLLANNIVYSENNETQQQQYLANLDTLLRDINNNHSEIASFTIYKNDMILVNTHNLYNHGFYKINSSLENIYFNLSEITEGHHHHHH | soluble |
| MISVFDMFKVGIGPSSSHTVGPMKAGKQFIDDLIKRNQFEQTTEIHVDVYGSLSMTGRGHSTDIAIIMGLAGYLPHNVDIDMISGFIEKVKQTALLPINVGQKIVKFDFENNLIFHRTFLKLHENGMTITALDENRTELYRQTYYSIGGGFIVDEAHFGK | not soluble |
| GSTPITGPHIAYTEAVSDTQIMLKWTYIPSSNNNTPIQGFYIYYRPTDSDNDSDYKRDVVEGSKQWHMIGHLQPETSYDIKMQCFNEGGESEFSNVMICETK | soluble |
| MSASVKESLQLQLLEMEMLFSMFPNQGEVKLEDVNALTNIKRYLEGTREALPPKIEFVITLQIEEPKVKIDLQVTMPHSYPYVALQLFGRSSELDRHQQLLLNKGLTSYIGTFDPGELCVCAAIQWLQDNSASYFLNRKLVYEPSTQAKPVKNTFLRMWIYSHHIYQQDLRKKILDVGKRLDVTGFCMTGKPGIICVEGFKEHCEEFWHTIRYPNWKHISCKHAESVETEGNGEDLRLFHSFEELLLEAHGDYGLRNDYHMNLGQFLEFLKKHKSEHVFQILFGIESKSSDSLEHHHHHH | soluble |
| MGSDKIHHHHHHMTLELCRLSLQQTQELLRLTDATLKNICSRRFSGEELYSEAIRRVLGGGGKRGPESIFLLIDGIGGTSRGWIFQLQAGELVRSSDEILVDADSVYSLGRLGSEVLVSNWRESFESIERYQVIFHPDIVKHIAKPIRNFVACQISGESNGALLAFNYAGEATEYDGDVLRGLSVVIGSLVTLSVMVRETEHAFIYTIEALARACEAAEESTGDHIVRVNRYAGALAAHMDLSPDFVEVISYSAQMHDVGKIRVPTAILLKPGPLDEAEERVMRLHPEFGEQILGDSPRLSVAREIALSHHENWDGSGYPRGLQGEAIPLAGRIVKLADVYDALRSRRSYKKALSHAEARAVFLNGDERITPRSHFDPRVLETFFRIEPLFERIYQSSRNQQV | not soluble |
| MAHHHHHHMTGLIAPHAGMSYSGRTAAEAFAVFREYLYAKGSKGSELERIFILGPSHTRGFEGCELSAASAYETPFGPLRVDTAVVDRVITDLRKAGVGAATASRRTDEAEHSIEMETPYLSHILHYPPTTTGAPVQPAAGRVAIVPIIVGWTNRQDEKAICDVLKPYMDDARNFFICSSDFCHWGERFSYTYHYKRSEYPNIGDSIIAMDHAAMELLEKRDLERWYAYLQMTKNTICGRAPISIGMQRWASKGNKARVKFVHYSQSNKCKDADDSSVSYAAAIIME | soluble |
